Data reported in patent US9624471B2, “Methods for maturing cardiomyocytes and uses thereof” (UNIVERSITY OF WASHINGTON THROUGH ITS CENTER FOR …, priority 2013, dated 2017).

B1: let-7g: human let-7 family miRNA, SEQ ID NO: 9, overexpressed from pLKO lentiviral pri-miR-let-7g construct (nucleic acid, listed as Homo sapiens)
chain: AGGCUGAGGUAGUAGUUUGUACAGUUUGAGGGUCUAUGAUACCACCCGGUACAGGAGAUAACUGUACAGGCCACUGCCUUGCCA
B2: let-7i: human let-7 family miRNA, SEQ ID NO: 10, overexpressed from pLKO lentiviral pri-miR-let-7i construct (nucleic acid, listed as Homo sapiens)
chain: CUGGCUGAGGUAGUAGUUUGUGCUGUUGGUCGGGUUGUGACAUUGCCCGCUGUGGAGAUAACUGCGCAAGCUACUGCCUUGCUA

How the values were obtained:
[1] = test system: cardiomyocytes (let-7 OE CMs vs. EV control); test: SEAHORSE XF96 metabolic flux assay (MITOSTRESS, palmitate, glucose stress); type: cell-based, human; details: compared to EV control; for OCR changes after FCCP treatment (maximal respiration capacity): after oligomycin
Description: To understand the molecular signaling components of maturation program that are modulated in let-7g OE CMs, the inventors probed the differential expression data further using density plots for each of the 12 pathways previously identified (FIG. 4F). […] The inverse relationship between FA metabolism and PI3/AKT/insulin signaling in let-7g OE CMs was similar to that observed in the 1 yr old CMs and consistent with the metabolic switch seen in maturing CMs in in vivo studies. The inventors validated by qPCR in the let-7 OE CMs the down-regulation of candidate let-7 targets in the insulin pathway and up-regulation of candidates of FA metabolism (FIG. 5B). To test the functional relevance for these gene expression changes, the inventors carried out metabolic analysis of let-7 OE CMs vs. EV control using the SEA HORSE™ metabolic flux assay. First, mitochondrial maximal respiration capacity was analyzed by measuring the oxygen consumption rate (OCR), a metabolic parameter representing the mitochondrial respiration levels. To record the maximum activity of the electron transport chain uncoupled from ATP synthesis, mitochondrial ATP synthase was inhibited with oligomycin, then maximum mitochondrial respiration was measured after addition of the proton gradient discharger, carbonyl cyanide 4-(trifluoromethoxy)phenylhydrazone (FCCP). […] Increased mitochondrial respiration can be due to increased mitochondrial copy number or increased mitochondrial activity, for example due to higher efficiency of glucose or fatty acid usage as energy substrates. […] To investigate whether the let-7 OE CMs also utilize glucose more efficiently, the extracellular acidification rate (ECAR) was determined. […] These experiments clearly indicate that let-7 OE specifically increases the efficiency of palmitate usage, which is an important sign of maturation.
The SEAHORSE™ XF96 extracellular flux analyzer was used to assess mitochondrial function. The plates were pre-treated with 0.1% Gelatin. At around 20 days after differentiation, the cardiomyocytes (both empty vector control and let-7 OE) were seeded onto the plates with a density of 30,000 cells per XF96 well (2,500/mm^2) to ensure about 90% surface coverage at the time of experiment. The SEAHORSE™ assays were carried out 3 days after the seeding onto the XF96 well plate. […] The OCR values were further normalized to the number of cells present in each well, quantified by the Hoechst staining (Hoechst 33342; SIGMA-ALDRICH™) as measured using fluorescence at 355 nm excitation and 460 nm emission. […] Cellular capacity to utilize Palmitate as an energy source was calculated as the OCR reduction after ETO addition. […]

let-7 OE CMs = test: Mitochondrial DNA copy number by qPCR (mtCol normalized to GAPDH); type: cell-based, human; details: let-7 OE vs. EV control
Description: FIGS. 5A-5G Let-7 over expression results in down-regulation of PI3/AKT/Insulin pathway and up-regulation of FA metabolism. Comparisons were done between let-7OE and EV control for all assays (FIG. 5A) Density plots using R generated with fold change expression (let-7g OE/EV) of genes for FA metabolism and PI3/AKT/Insulin signaling. (FIG. 5B) qPCR analysis of candidate let-7 targets of the insulin pathway and genes from the FA metabolism. (FIG. 5C) Representative OCR profile in response to ATP synthase inhibitor oligomycin, uncoupler of electron transport and oxidative phosphorylation, FCCP and electron transport chain blockers rotenone and antimycin during mito-stress assay. (FIG. 5D) Quantification of maximal respiration capacity, i.e., changes in response to FCCP treatment after inhibition of ATP synthase by oligomycin. n=24 from 3 biological replicates. (FIG. 5E) mitochondrial DNA copy number was determined by measuring the ratio of MtDNA to genomic DNA using primers specific for mitochondrial DNA gene, Col (mtCol) and normalizing to chromosomal gene GAPDH. (FIG. 5F) Representative OCR trace of let-7g OE cardiomyocytes for fatty acid stress measuring Etomixir (ETO) responsive OCR changes after palmitate addition. (FIG. 5G) Quantification of changes in OCR in response to ETO. n=32 from 3 biological replicates. […]

| Molecule | OCR changes after FCCP treatment (maximal respiration capacity) [1] | OCR increase in response to palmitate (fatty acid stress test) [1] | mitochondrial genome copy number (let-7 OE CMs) |
| --- | --- | --- | --- |
| B1 | significantly greater | greater | without affecting |
| B2 | significantly greater | greater | without affecting |
